B1: GpH7-B3 variant K334_01G/GpL16-k0 (antibody, human IgG1, kappa)
heavy: not shown
light: DIVMTQSPLSLPVTPGEPASISCQASESLVHSNRNTYLHWYLQKPGQSPQLLIYKVSNRFSGVPDRFSGSGSGTDFTLKISRVEAEDVGVYYCSQNTHVPPTFGQGTKVEIERTVAAPSVFIFPPSDEQLKSGTASVVCLLNNFYPREAKVQWKVDNALQSGNSQESVTEQDSKDSTYSLSSTLTLSKADYEKHKVYACEVTHQGLSSPVTKSFNRGEC
notes: homodimerized antibody, mutation in both H chains; also called K334_01G Ho Ab
B2: GpH7-B3 variant K334_08L/GpL16-k0 (antibody, human IgG1, kappa)
heavy: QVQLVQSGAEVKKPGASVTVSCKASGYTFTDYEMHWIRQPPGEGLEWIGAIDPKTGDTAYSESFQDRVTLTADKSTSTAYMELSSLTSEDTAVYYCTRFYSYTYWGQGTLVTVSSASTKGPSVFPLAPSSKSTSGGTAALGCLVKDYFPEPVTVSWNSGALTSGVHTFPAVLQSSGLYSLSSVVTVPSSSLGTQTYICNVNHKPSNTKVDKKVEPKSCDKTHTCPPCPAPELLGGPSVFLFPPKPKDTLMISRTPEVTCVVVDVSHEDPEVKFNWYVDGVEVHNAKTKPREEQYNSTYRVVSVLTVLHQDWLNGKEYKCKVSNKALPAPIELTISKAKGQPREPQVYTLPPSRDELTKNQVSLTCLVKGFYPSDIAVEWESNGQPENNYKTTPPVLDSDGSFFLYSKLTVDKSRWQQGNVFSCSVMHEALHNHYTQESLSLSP
light: B1 light
notes: homodimerized antibody, mutation in both H chains; also called K334_08L Ho Ab
B3: GpH7-B3 variant S324_09D/GpL16-k0 (antibody, human IgG1, kappa)
heavy: not shown
light: B1 light
notes: homodimerized antibody, mutation in both H chains; also called S324_09D Ho Ab
B4: GpH7-B3 variant Y296_02A/GpL16-k0 (antibody, human IgG1, kappa)
heavy: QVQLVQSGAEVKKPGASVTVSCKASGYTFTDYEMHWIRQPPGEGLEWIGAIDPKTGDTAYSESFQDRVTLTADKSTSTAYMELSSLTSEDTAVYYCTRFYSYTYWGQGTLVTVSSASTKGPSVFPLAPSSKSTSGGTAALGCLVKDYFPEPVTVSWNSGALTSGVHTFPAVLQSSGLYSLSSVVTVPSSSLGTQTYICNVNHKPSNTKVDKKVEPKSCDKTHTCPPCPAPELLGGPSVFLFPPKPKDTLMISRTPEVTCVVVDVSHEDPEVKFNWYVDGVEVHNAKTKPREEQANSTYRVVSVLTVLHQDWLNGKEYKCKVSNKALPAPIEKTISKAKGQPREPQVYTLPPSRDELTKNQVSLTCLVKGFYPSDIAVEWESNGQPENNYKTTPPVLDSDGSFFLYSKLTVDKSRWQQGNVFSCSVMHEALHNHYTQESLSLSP
light: B1 light
notes: homodimerized antibody, mutation in both H chains; also called Y296_02A Ho Ab
B5: GpH7-B3 variant K334_13S/GpL16-k0 (antibody, human IgG1, kappa)
heavy: not shown
light: B1 light
notes: homodimerized antibody, mutation in both H chains; also called K334_13S Ho Ab
B6: GpH7-B3 variant K334_19Q/GpL16-k0 (antibody, human IgG1, kappa)
heavy: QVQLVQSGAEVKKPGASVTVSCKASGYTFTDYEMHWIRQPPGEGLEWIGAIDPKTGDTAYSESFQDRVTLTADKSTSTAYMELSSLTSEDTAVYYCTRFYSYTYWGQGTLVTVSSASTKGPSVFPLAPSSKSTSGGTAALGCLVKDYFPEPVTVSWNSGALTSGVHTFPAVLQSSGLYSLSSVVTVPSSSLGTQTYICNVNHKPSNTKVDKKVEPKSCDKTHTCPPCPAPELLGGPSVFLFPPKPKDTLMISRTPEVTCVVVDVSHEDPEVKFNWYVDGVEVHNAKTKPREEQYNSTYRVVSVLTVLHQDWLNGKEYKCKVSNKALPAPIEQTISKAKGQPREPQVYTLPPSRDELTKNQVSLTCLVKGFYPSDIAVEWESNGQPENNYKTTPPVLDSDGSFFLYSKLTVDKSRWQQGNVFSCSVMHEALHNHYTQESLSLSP
light: B1 light
notes: homodimerized antibody, mutation in both H chains; also called K334_19Q Ho Ab
B7: GpH7-B3 variant K334_16H/GpL16-k0 (antibody, human IgG1, kappa)
heavy: not shown
light: B1 light
notes: homodimerized antibody, mutation in both H chains; also called K334_16H Ho Ab
B8: GpH7-B3 variant K334_04F/GpL16-k0 (antibody, human IgG1, kappa)
heavy: not shown
light: B1 light
notes: homodimerized antibody, mutation in both H chains; also called K334_04F Ho Ab
B9: GpH7-B3 variant K326_04F/GpL16-k0 (antibody, human IgG1, kappa)
heavy: not shown
light: B1 light
notes: homodimerized antibody, mutation in both H chains; also called K326_04F Ho Ab
B10: GpH7-B3 variant K326_03V/GpL16-k0 (antibody, human IgG1, kappa)
heavy: not shown
light: B1 light
notes: homodimerized antibody, mutation in both H chains; also called K326_03V Ho Ab
B11: GpH7-B3 variant I336_15Y/GpL16-k0 (antibody, human IgG1, kappa)
heavy: not shown
light: B1 light
notes: homodimerized antibody, mutation in both H chains; also called I336_15Y Ho Ab
B12: GpH7-B3 variant K334_14T/GpL16-k0 (antibody, human IgG1, kappa)
heavy: not shown
light: B1 light
notes: homodimerized antibody, mutation in both H chains; also called K334_14T Ho Ab
B13: GpH7-B3 variant K326_10E/GpL16-k0 (antibody, human IgG1, kappa)
heavy: not shown
light: B1 light
notes: homodimerized antibody, mutation in both H chains; also called K326_10E Ho Ab
B14: GpH7-B3 variant T335_01G/GpL16-k0 (antibody, human IgG1, kappa)
heavy: not shown
light: B1 light
notes: homodimerized antibody, mutation in both H chains; also called T335_01G Ho Ab
B15: GpH7-B3 variant S337_14T/GpL16-k0 (antibody, human IgG1, kappa)
heavy: not shown
light: B1 light
notes: homodimerized antibody, mutation in both H chains; also called S337_14T Ho Ab
B16: GpH7-B3 variant Y296_03V/GpL16-k0 (antibody, human IgG1, kappa)
heavy: not shown
light: B1 light
notes: homodimerized antibody, mutation in both H chains; also called Y296_03V Ho Ab
B17: GpH7-B3 variant S239_10E/GpL16-k0 (antibody, human IgG1, kappa)
heavy: not shown
light: B1 light
notes: homodimerized antibody, mutation in both H chains; also called S239_10E Ho Ab
B18: GpH7-B3 variant S267_10E/GpL16-k0 (antibody, human IgG1, kappa)
heavy: not shown
light: B1 light
notes: homodimerized antibody, mutation in both H chains; also called S267_10E Ho Ab
B19: GpH7-B3 variant L328_15Y/GpL16-k0 (antibody, human IgG1, kappa)
heavy: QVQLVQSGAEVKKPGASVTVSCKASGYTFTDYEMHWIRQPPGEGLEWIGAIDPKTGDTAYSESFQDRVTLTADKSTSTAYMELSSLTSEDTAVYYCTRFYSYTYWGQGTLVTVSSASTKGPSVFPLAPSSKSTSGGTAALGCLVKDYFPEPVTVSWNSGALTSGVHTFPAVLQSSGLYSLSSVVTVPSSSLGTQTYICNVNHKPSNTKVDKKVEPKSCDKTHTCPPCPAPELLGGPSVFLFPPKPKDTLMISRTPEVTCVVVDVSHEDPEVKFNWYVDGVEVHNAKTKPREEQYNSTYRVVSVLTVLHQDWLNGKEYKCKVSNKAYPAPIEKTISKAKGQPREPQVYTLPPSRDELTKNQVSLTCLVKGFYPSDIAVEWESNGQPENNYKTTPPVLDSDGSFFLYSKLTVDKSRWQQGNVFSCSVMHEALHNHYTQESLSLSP
light: B1 light
notes: homodimerized antibody, mutation in both H chains; also called L328_15Y Ho Ab
B20: GpH7-B3 variant Y300_16H/GpL16-k0 (antibody, human IgG1, kappa)
heavy: not shown
light: B1 light
notes: homodimerized antibody, mutation in both H chains; also called Y300_16H Ho Ab
B21: GpH7-B3 variant S267_18N/GpL16-k0 (antibody, human IgG1, kappa)
heavy: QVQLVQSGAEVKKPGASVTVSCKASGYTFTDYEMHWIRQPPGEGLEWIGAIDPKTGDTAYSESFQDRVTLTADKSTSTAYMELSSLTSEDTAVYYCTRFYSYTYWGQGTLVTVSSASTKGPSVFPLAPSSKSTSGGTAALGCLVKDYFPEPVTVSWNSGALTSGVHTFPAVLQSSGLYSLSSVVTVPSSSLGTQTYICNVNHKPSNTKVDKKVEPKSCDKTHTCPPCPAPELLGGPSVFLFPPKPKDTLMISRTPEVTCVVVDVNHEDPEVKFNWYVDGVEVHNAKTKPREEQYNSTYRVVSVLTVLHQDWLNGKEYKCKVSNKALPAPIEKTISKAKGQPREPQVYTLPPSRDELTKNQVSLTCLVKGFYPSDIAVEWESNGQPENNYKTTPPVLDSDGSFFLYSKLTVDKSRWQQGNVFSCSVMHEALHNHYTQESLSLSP
light: B1 light
notes: homodimerized antibody, mutation in both H chains; also called S267_18N Ho Ab
B22: GpH7-B3 variant K334_05P/GpL16-k0 (antibody, human IgG1, kappa)
heavy: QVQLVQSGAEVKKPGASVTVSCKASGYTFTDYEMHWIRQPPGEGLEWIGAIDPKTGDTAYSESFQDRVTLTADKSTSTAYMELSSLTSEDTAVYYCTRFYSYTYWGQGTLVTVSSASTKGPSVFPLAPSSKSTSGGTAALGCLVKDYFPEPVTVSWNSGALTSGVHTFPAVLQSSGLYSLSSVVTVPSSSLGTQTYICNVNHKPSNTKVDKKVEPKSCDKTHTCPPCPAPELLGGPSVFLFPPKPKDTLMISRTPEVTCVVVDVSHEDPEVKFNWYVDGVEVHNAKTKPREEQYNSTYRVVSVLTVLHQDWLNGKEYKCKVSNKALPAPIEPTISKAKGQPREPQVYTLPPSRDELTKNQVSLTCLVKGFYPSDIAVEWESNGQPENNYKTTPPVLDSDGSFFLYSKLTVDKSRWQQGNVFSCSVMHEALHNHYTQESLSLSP
light: B1 light
notes: homodimerized antibody, mutation in both H chains; also called K334_05P Ho Ab
B23: GpH7-B3 variant K334_02A/GpL16-k0 (antibody, human IgG1, kappa)
heavy: not shown
light: B1 light
notes: homodimerized antibody, mutation in both H chains; also called K334_02A Ho Ab
B24: GpH7-B3 variant P271_18N/GpL16-k0 (antibody, human IgG1, kappa)
heavy: not shown
light: B1 light
notes: homodimerized antibody, mutation in both H chains; also called P271_18N Ho Ab
B25: GpH7-B3 variant Q295_10E/GpL16-k0 (antibody, human IgG1, kappa)
heavy: not shown
light: B1 light
notes: homodimerized antibody, mutation in both H chains; also called Q295_10E Ho Ab
B26: GpH7-B3 variant Y296_07I/GpL16-k0 (antibody, human IgG1, kappa)
heavy: not shown
light: B1 light
notes: homodimerized antibody, mutation in both H chains; also called Y296_07I Ho Ab
B27: GpH7-B3 variant S337_11K/GpL16-k0 (antibody, human IgG1, kappa)
heavy: not shown
light: B1 light
notes: homodimerized antibody, mutation in both H chains; also called S337_11K Ho Ab
B28: GpH7-B3 variant S298_09D/GpL16-k0 (antibody, human IgG1, kappa)
heavy: not shown
light: B1 light
notes: homodimerized antibody, mutation in both H chains; also called S298_09D Ho Ab
B29: GpH7-B3 variant K326_09D/GpL16-k0 (antibody, human IgG1, kappa)
heavy: not shown
light: B1 light
notes: homodimerized antibody, mutation in both H chains; also called K326_09D Ho Ab
B30: GpH7-B3 variant K326_07I/GpL16-k0 (antibody, human IgG1, kappa)
heavy: not shown
light: B1 light
notes: homodimerized antibody, mutation in both H chains; also called K326_07I Ho Ab
B31: GpH7-B3 variant K334_15Y/GpL16-k0 (antibody, human IgG1, kappa)
heavy: not shown
light: B1 light
notes: homodimerized antibody, mutation in both H chains; also called K334_15Y Ho Ab
B32: GpH7-B3 variant K334_09D/GpL16-k0 (antibody, human IgG1, kappa)
heavy: not shown
light: B1 light
notes: homodimerized antibody, mutation in both H chains; also called K334_09D Ho Ab
B33: GpH7-B3 variant Y296_08L/GpL16-k0 (antibody, human IgG1, kappa)
heavy: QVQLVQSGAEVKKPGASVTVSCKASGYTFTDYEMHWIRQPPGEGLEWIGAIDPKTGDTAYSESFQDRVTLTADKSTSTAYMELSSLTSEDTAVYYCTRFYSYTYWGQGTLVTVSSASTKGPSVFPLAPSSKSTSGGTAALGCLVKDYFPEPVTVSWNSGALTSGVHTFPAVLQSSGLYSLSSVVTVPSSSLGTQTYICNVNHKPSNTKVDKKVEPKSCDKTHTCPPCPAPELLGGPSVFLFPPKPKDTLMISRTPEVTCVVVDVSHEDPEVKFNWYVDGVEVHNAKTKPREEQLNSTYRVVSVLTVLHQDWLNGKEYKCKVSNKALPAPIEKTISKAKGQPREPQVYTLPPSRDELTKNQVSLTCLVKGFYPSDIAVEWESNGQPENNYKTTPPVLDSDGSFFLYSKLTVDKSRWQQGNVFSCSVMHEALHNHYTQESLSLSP
light: B1 light
notes: homodimerized antibody, mutation in both H chains; also called Y296_08L Ho Ab
B34: GpH7-B3 variant S267_14T/GpL16-k0 (antibody, human IgG1, kappa)
heavy: not shown
light: B1 light
notes: homodimerized antibody, mutation in both H chains; also called S267_14T Ho Ab
B35: GpH7-B3 variant P271_10E/GpL16-k0 (antibody, human IgG1, kappa)
heavy: not shown
light: B1 light
notes: homodimerized antibody, mutation in both H chains; also called P271_10E Ho Ab
B36: GpH7-B3 variant S267_06M/GpL16-k0 (antibody, human IgG1, kappa)
heavy: not shown
light: B1 light
notes: homodimerized antibody, mutation in both H chains; also called S267_06M Ho Ab
B37: GpH7-B3 variant Y300_07I/GpL16-k0 (antibody, human IgG1, kappa)
heavy: not shown
light: B1 light
notes: homodimerized antibody, mutation in both H chains; also called Y300_07I Ho Ab
B38: GpH7-B3 variant T335_13S/GpL16-k0 (antibody, human IgG1, kappa)
heavy: not shown
light: B1 light
notes: homodimerized antibody, mutation in both H chains; also called T335_13S Ho Ab
B39: GpH7-B3 variant K334_07I/GpL16-k0 (antibody, human IgG1, kappa)
heavy: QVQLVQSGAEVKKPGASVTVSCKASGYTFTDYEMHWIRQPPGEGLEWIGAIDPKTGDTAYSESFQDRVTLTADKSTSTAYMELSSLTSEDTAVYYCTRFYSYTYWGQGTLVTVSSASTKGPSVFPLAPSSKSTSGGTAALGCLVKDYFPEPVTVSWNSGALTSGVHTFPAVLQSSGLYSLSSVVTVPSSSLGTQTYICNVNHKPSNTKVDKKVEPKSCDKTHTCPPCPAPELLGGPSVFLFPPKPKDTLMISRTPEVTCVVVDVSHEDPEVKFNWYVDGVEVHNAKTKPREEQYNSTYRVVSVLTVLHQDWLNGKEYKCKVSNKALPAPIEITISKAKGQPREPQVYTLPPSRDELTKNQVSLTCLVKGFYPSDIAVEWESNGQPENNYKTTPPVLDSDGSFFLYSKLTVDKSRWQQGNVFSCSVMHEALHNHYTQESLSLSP
light: B1 light
notes: homodimerized antibody, mutation in both H chains; also called K334_07I Ho Ab
B40: GpH7-B3 variant K326_08L/GpL16-k0 (antibody, human IgG1, kappa)
heavy: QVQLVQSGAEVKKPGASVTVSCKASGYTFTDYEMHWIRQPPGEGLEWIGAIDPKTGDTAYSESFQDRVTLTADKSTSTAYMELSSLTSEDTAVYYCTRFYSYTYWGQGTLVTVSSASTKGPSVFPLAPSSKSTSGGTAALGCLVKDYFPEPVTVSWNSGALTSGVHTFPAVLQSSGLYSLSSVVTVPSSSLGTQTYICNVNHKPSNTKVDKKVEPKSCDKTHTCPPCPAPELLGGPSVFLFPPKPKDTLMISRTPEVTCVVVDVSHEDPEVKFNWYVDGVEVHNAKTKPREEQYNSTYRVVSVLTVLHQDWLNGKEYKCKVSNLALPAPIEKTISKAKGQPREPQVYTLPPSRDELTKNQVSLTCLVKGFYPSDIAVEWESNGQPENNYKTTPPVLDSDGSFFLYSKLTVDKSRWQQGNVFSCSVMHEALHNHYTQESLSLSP
light: B1 light
notes: homodimerized antibody, mutation in both H chains; also called K326_08L Ho Ab
B41: GpH7-B3 variant S267_19Q/GpL16-k0 (antibody, human IgG1, kappa)
heavy: not shown
light: B1 light
notes: homodimerized antibody, mutation in both H chains; also called S267_19Q Ho Ab
B42: GpH7-B3 variant S337_18N/GpL16-k0 (antibody, human IgG1, kappa)
heavy: not shown
light: B1 light
notes: homodimerized antibody, mutation in both H chains; also called S337_18N Ho Ab
B43: GpH7-B3 variant P271_01G/GpL16-k0 (antibody, human IgG1, kappa)
heavy: not shown
light: B1 light
notes: homodimerized antibody, mutation in both H chains; also called P271_01G Ho Ab
B44: GpH7-B3 variant I336_16H/GpL16-k0 (antibody, human IgG1, kappa)
heavy: not shown
light: B1 light
notes: homodimerized antibody, mutation in both H chains; also called I336_16H Ho Ab
B45: GpH7-B3 variant S337_16H/GpL16-k0 (antibody, human IgG1, kappa)
heavy: not shown
light: B1 light
notes: homodimerized antibody, mutation in both H chains; also called S337_16H Ho Ab
B46: GpH7-B3 variant Q295_12R/GpL16-k0 (antibody, human IgG1, kappa)
heavy: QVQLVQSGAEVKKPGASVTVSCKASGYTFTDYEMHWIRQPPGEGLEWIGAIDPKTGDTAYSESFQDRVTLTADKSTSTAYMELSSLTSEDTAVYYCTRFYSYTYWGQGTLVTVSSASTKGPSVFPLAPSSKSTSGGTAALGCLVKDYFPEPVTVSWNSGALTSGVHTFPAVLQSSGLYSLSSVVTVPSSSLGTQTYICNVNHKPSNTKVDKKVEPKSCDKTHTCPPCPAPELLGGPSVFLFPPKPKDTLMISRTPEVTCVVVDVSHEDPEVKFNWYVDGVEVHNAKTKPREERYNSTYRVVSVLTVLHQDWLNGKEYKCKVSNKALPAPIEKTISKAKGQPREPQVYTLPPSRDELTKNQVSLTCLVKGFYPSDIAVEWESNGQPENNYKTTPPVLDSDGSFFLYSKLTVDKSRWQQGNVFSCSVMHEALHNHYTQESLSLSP
light: B1 light
notes: homodimerized antibody, mutation in both H chains; also called Q295_12R Ho Ab
B47: GpH7-B3 variant P271_08L/GpL16-k0 (antibody, human IgG1, kappa)
heavy: not shown
light: B1 light
notes: homodimerized antibody, mutation in both H chains; also called P271_08L Ho Ab
B48: GpH7-B3 variant K326_19Q/GpL16-k0 (antibody, human IgG1, kappa)
heavy: not shown
light: B1 light
notes: homodimerized antibody, mutation in both H chains; also called K326_19Q Ho Ab
B49: GpH7-B3 variant K326_20W/GpL16-k0 (antibody, human IgG1, kappa)
heavy: not shown
light: B1 light
notes: homodimerized antibody, mutation in both H chains; also called K326_20W Ho Ab
B50: GpH7-B3 variant S324_10E/GpL16-k0 (antibody, human IgG1, kappa)
heavy: not shown
light: B1 light
notes: homodimerized antibody, mutation in both H chains; also called S324_10E Ho Ab
B51: GpH7-B3 variant T335_02A/GpL16-k0 (antibody, human IgG1, kappa)
heavy: not shown
light: B1 light
notes: homodimerized antibody, mutation in both H chains; also called T335_02A Ho Ab
B52: GpH7-B3 variant K334_18N/GpL16-k0 (antibody, human IgG1, kappa)
heavy: not shown
light: B1 light
notes: homodimerized antibody, mutation in both H chains; also called K334_18N Ho Ab
B53: GpH7-B3 variant K334_03V/GpL16-k0 (antibody, human IgG1, kappa)
heavy: not shown
light: B1 light
notes: homodimerized antibody, mutation in both H chains; also called K334_03V Ho Ab
B54: GpH7-B3 variant K326_06M/GpL16-k0 (antibody, human IgG1, kappa)
heavy: not shown
light: B1 light
notes: homodimerized antibody, mutation in both H chains; also called K326_06M Ho Ab
B55: GpH7-B3 variant P271_19Q/GpL16-k0 (antibody, human IgG1, kappa)
heavy: not shown
light: B1 light
notes: homodimerized antibody, mutation in both H chains; also called P271_19Q Ho Ab

Biological target: T1, FcγRIa extracellular domain with C-terminal His tag (human, UniProt P12314 16-292)
T1 construct: extracellular domain; soluble analyte in Biacore; also called FcgRI; CD64
T1 sequence (P12314 16-292): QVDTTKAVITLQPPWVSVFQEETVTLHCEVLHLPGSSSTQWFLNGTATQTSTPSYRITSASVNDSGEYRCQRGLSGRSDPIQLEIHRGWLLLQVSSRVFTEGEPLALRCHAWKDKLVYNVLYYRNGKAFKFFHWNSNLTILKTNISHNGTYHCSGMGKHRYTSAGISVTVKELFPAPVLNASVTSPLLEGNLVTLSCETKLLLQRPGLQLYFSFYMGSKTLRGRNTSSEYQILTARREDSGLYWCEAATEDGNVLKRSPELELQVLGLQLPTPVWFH
Assay: SPR (Biacore), relative FcγRIa binding, GpH7-B3/GpL16-k0 (HoCon Ab) = 100

| Binder | Ho/Con_1a |
| --- | --- |
| B1 | 106 % of control |
| B2 | 108 % of control |
| B3 | 106 % of control |
| B4 | 103 % of control |
| B5 | 106 % of control |
| B6 | 106 % of control |
| B7 | 106 % of control |
| B8 | 106 % of control |
| B9 | 102 % of control |
| B10 | 103 % of control |
| B11 | 110 % of control |
| B12 | 106 % of control |
| B13 | 105 % of control |
| B14 | 106 % of control |
| B15 | 106 % of control |
| B16 | 104 % of control |
| B17 | 106 % of control |
| B18 | 107 % of control |
| B19 | 104 % of control |
| B20 | 111 % of control |
| B21 | 107 % of control |
| B22 | 106 % of control |
| B23 | 106 % of control |
| B24 | 103 % of control |
| B25 | 105 % of control |
| B26 | 106 % of control |
| B27 | 105 % of control |
| B28 | 106 % of control |

| Binder | Ho/Con_1a |
| --- | --- |
| B29 | 106 % of control |
| B30 | 102 % of control |
| B31 | 107 % of control |
| B32 | 108 % of control |
| B33 | 105 % of control |
| B34 | 107 % of control |
| B35 | 103 % of control |
| B36 | 106 % of control |
| B37 | 109 % of control |
| B38 | 105 % of control |
| B39 | 107 % of control |
| B40 | 101 % of control |
| B41 | 104 % of control |
| B42 | 106 % of control |
| B43 | 106 % of control |
| B44 | 114 % of control |
| B45 | 105 % of control |
| B46 | 101 % of control |
| B47 | 103 % of control |
| B48 | 105 % of control |
| B49 | 104 % of control |
| B50 | 106 % of control |
| B51 | 105 % of control |
| B52 | 108 % of control |
| B53 | 105 % of control |
| B54 | 104 % of control |
| B55 | 104 % of control |

From US20180155451A1 (published 2018)
